Laboratory results from PMC7440162 (Cell, 2020).
Each block holds one binder with its values, some of them ahead of it.

How the values were obtained:
Test in all cases: SPR
TIE2 ECD-Fc = TIE2 ECD-Fc (human, UniProt Q02763 23-748, biotin on the AviTag (as SPR ligand))
PTPRS ECD-Fc = target: T1, PTPRS ECD-Fc (human, UniProt Q13332 30-1282)
T1 sequence: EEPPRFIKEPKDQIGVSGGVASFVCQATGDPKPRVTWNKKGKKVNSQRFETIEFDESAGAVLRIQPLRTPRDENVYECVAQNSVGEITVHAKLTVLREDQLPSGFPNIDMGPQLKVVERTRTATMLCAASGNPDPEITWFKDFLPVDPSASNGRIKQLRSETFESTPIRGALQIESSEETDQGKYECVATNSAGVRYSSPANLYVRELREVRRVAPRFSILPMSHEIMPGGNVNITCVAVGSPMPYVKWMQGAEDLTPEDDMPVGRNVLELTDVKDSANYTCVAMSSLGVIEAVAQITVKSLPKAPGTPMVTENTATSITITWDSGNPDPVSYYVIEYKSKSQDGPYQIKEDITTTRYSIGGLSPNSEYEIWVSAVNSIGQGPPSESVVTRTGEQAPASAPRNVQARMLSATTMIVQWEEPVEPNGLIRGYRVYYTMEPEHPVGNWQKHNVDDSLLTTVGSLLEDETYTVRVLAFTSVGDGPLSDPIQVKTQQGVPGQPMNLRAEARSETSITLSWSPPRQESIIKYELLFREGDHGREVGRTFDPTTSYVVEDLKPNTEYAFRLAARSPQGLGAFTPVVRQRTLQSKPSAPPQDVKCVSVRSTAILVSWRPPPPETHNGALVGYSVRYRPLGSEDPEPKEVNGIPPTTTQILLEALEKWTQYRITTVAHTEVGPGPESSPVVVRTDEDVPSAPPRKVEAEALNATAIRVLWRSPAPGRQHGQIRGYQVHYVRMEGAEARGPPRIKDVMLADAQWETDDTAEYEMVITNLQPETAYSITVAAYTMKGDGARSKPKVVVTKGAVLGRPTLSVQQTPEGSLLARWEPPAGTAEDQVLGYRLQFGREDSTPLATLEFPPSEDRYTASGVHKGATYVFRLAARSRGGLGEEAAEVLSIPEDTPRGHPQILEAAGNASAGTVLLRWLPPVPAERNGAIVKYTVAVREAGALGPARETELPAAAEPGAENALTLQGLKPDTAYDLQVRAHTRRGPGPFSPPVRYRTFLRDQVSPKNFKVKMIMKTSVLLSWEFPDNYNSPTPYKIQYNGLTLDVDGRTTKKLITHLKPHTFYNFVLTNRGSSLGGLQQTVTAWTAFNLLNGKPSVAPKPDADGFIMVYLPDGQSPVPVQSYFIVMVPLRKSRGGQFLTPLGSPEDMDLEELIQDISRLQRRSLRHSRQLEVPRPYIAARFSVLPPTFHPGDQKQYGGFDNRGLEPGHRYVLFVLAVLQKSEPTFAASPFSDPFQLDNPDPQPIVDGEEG

FGFR3 ECD-Fc = target: T2, FGFR3 ECD-Fc (human, UniProt P22607 23-375)
T2 sequence: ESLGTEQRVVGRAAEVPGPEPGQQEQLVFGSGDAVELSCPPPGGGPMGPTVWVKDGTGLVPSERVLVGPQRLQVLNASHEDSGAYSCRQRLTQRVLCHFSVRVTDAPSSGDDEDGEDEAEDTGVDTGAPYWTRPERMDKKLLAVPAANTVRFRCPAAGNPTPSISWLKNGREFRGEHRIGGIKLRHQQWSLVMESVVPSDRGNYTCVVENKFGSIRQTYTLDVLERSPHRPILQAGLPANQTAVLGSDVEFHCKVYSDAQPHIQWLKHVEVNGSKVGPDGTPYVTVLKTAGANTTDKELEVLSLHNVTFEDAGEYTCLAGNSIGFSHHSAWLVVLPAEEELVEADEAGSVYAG

IL-6Rα ECD-Fc = target: T3, IL-6Rα ECD-Fc (human, UniProt P08887 20-365, biotin on the AviTag (as SPR ligand))
T3 sequence: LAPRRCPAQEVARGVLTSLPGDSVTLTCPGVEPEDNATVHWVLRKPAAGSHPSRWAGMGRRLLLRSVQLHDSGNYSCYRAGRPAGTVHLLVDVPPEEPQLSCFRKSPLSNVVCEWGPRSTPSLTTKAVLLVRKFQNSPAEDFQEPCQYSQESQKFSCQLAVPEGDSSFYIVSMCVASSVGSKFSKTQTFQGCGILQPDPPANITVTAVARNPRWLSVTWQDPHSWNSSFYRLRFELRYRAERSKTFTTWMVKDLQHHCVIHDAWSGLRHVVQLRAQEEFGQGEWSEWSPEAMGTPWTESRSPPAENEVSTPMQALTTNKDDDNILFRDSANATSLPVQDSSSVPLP

human ISLR2 ECD-Fc = target: T4, human ISLR2 ECD-Fc (human, UniProt Q6UXK2 19-589, biotin on the AviTag (as SPR ligand))
T4 sequence: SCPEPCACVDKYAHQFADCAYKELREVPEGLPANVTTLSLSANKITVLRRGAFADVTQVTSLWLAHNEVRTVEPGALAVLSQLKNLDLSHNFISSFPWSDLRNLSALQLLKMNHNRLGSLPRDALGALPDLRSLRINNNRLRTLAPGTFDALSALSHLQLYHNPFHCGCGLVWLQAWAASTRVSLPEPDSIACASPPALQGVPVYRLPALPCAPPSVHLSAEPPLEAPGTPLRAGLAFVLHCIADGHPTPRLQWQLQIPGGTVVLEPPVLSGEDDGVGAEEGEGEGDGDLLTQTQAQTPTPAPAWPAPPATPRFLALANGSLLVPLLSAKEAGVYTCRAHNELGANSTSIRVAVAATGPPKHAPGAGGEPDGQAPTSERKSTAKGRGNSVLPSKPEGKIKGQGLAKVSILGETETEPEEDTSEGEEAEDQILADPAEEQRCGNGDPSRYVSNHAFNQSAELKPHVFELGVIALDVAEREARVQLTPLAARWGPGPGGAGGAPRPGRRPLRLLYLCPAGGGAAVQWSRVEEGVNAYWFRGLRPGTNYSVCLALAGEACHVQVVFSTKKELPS

PRTG ECD-Fc = target: T5, PRTG ECD-Fc (human, UniProt Q2VWP7 36-949)
T5 sequence: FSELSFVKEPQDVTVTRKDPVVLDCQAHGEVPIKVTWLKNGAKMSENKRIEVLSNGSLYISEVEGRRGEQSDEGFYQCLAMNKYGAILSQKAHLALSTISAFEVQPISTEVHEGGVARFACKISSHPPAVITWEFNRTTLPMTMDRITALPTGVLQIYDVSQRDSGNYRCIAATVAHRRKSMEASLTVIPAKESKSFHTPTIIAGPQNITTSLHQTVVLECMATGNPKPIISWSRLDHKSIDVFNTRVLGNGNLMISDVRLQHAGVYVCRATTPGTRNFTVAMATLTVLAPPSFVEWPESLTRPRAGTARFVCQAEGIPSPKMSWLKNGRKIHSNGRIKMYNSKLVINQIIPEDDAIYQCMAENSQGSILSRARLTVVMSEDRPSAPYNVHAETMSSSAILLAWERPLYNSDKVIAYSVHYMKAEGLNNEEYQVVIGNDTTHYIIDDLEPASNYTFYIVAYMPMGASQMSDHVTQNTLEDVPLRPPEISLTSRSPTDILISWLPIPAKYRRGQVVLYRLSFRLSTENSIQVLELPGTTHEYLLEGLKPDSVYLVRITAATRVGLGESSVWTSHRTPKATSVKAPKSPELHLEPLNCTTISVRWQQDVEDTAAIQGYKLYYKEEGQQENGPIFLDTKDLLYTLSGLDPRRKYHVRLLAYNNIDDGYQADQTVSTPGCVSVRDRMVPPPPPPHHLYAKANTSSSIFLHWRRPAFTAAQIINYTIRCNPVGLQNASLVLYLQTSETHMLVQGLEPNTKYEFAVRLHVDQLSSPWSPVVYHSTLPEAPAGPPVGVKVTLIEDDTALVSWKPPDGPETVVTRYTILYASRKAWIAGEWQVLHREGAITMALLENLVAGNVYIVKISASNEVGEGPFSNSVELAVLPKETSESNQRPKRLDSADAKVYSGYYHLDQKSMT

TIE1 ECD-Fc = target: T6, TIE1 ECD-Fc (human, UniProt P35590 22-759, biotin on the AviTag (as SPR ligand))
T6 sequence: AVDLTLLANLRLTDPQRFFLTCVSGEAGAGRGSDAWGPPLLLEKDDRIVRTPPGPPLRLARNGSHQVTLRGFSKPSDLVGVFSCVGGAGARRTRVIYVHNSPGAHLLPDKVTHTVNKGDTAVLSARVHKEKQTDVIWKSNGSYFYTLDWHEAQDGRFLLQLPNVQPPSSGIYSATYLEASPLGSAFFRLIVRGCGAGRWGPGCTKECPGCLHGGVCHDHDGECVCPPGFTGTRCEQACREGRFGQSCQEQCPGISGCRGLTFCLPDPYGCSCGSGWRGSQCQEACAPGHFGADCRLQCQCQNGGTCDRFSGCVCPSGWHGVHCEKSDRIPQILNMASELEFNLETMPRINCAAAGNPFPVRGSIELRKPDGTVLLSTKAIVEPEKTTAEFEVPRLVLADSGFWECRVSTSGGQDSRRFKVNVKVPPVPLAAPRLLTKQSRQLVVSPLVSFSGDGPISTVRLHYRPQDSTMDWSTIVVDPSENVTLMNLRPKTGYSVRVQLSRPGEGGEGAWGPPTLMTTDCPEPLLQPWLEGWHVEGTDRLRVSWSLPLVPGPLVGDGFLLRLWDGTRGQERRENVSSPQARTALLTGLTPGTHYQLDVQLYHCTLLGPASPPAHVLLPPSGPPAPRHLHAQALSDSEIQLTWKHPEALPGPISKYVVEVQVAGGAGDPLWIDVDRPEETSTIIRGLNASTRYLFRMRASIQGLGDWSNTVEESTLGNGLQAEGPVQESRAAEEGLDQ

TIE2 ECD-Fc, sequence (Q02763 23-748): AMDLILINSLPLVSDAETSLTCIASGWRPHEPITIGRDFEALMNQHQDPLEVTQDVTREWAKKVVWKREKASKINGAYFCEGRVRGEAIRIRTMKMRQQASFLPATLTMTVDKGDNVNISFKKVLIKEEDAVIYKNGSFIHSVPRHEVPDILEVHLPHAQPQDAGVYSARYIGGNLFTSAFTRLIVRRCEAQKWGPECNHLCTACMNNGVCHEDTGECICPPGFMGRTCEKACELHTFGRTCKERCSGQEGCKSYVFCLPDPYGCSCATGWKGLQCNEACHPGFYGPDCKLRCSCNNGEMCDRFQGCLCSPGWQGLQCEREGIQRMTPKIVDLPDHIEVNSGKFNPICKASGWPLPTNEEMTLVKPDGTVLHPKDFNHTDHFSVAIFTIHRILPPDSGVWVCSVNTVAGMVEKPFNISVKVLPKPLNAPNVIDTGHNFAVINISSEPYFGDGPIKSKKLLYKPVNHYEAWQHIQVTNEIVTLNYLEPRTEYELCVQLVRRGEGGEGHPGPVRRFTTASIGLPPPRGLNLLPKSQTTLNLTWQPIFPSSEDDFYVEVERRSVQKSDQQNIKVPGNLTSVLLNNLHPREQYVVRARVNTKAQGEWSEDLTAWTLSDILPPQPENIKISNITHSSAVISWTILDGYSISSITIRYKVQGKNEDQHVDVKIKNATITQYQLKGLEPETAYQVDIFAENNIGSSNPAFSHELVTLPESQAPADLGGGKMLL

B1: Recombinant Human Angiopoietin-1 Protein (ligand)
chain: HIGCSNQRRSPENSGRRYNRIQHGQCAYTFILPEHDGNCRESTTDQYNTNALQRDAPHVEPDFSSQKLQHLEHVMENYTQWLQKLENYIVENMKSEMAQIQQNAVQNHTATMLEIGTSLLSQTAEQTRKLTDVETQVLNQTSRLEIQLLENSLSTYKLEKQLLQQTNEILKIHEKNSLLEHKILEMEGKHKEELDTLKEEKENLQGLVTRQTYIIQELEKQLNRATTNNSVLQKQQLELMDTVHNLVNLCTKEGVLLKGGKREEEKPFRDCADVYQAGFNKSGIYTIYINNMPEPKKVFCNMDVNGGGWTVIQHREDGSLDFQRGWKEYKMGFGNPSGEYWLGNEFIFAITSQRQYMLRIELMDWEGNRAYSQYDRFHIGNEKQNYRLYLKGHTGTAGKQSSLILHGADFSTKDADNDNCMCKCALMLTGGWWFDACGPSNLNGMFYTAGQNHGKLNGIKWHYFKGPSYSLRSTTMMIRPLDF
- binding result (TIE2 ECD-Fc): binds

B2: IL1RAPL2 ECD-Fc (Fc fusion)
chain: TNLKMVSKRNSVDGCIDWSVDLKTYMALAGEPVRVKCALFYSYIRTNYSTAQSTGLRLMWYKNKGDLEEPIIFSEVRMSKEEDSIWFHSAEAQDSGFYTCVLRNSTYCMKVSMSLTVAENESGLCYNSRIRYLEKSEVTKRKEISCPDMDDFKKSDQEPDVVWYKECKPKMWRSIIIQKGNALLIQEVQEEDGGNYTCELKYEGKLVRRTTELKVTALLTDKPPKPLFPMENQPSVIDVQLGKPLNIPCKAFFGFSGESGPMIYWMKGEKFIEELAGHIREGEIRLLKEHLGEKEVELALIFDSVVEADLANYTCHVENRNGRKHASVLLRKKDLIYK
modifications: biotin on the AviTag (as SPR ligand)
- binding result (PTPRS ECD-Fc): binds
- binding result (FGFR3 ECD-Fc): binds

The next lines start with the values.

- binding result (IL-6Rα ECD-Fc): binds
- binding result (human ISLR2 ECD-Fc): binds
- binding result (PRTG ECD-Fc): binds
B3: IGFBP7-Fc (Fc fusion)
chain: SSSDTCGPCEPASCPPLPPLGCLLGETRDACGCCPMCARGEGEPCGGGGAGRGYCAPGMECVKSRKRRKGKAGAAAGGPGVSGVCVCKSRYPVCGSDGTTYPSGCQLRAASQRAESRGEKAITQVSKGTCEQGPSIVTPPKDIWNVTGAQVYLSCEVIGIPTPVLIWNKVKRGHYGVQRTELLPGDRDNLAIQTRGGPEKHEVTGWVLVSPLSKEDAGEYECHASNSQGQASASAKITVVDALHEIPVKKGEGAEL
modifications: biotin on the AviTag (as SPR ligand)

- binding result (IL-6Rα ECD-Fc): binds
- binding result (human ISLR2 ECD-Fc): binds
- binding result (PRTG ECD-Fc): binds
B4: IGFBPL1-Fc (Fc fusion)
chain: LGIRDVGGRRPKCGPCRPEGCPAPAPCPAPGISALDECGCCARCLGAEGASCGGRAGGRCGPGLVCASQAAGAAPEGTGLCVCAQRGTVCGSDGRSYPSVCALRLRARHTPRAHPGHLHKARDGPCEFAPVVVVPPRSVHNVTGAQVGLSCEVRAVPTPVITWRKVTKSPEGTQALEELPGDHVNIAVQVRGGPSDHEATAWILINPLRKEDEGVYQCHAANMVGEAESHSTVTVLDLSKYRSFHFPAPDDRM
modifications: biotin on the AviTag (as SPR ligand)

- binding result (TIE1 ECD-Fc): binds
B5: TrkA ECD-Fc (Fc fusion)
chain: AAPCPDACCPHGSSGLRCTRDGALDSLHHLPGAENLTELYIENQQHLQHLELRDLRGLGELRNLTIVKSGLRFVAPDAFHFTPRLSRLNLSFNALESLSWKTVQGLSLQELVLSGNPLHCSCALRWLQRWEEEGLGGVPEQKLQCHGQGPLAHMPNASCGVPTLKVQVPNASVDVGDDVLLRCQVEGRGLEQAGWILTELEQSATVMKSGGLPSLGLTLANVTSDLNRKNVTCWAENDVGRAEVSVQVNVSFPASVQLHTAVEMHHWCIPFSVDGQPAPSLRWLFNGSVLNETSFIFTEFLEPAANETVRHGCLRLNQPTHVNNGNYTLLAANPFGQASASIMAAFMDNPFEFNPEDPIPVSFSPVDTNSTSGDPVEKKDETPFGVSVAVG
modifications: biotin on the AviTag (in streptavidin-Alexa 647 tetramers)
